Here are results for nine molecules from publication PMC5435868, “Crystal structure of U2 snRNP SF3b components: Hsh49p in complex with Cus1p-binding domain” (RNA, 2017).

Data set [1] has as its target T1, Hsh49p (Saccharomyces cerevisiae) (UniProt Q99181).
T1 sequence: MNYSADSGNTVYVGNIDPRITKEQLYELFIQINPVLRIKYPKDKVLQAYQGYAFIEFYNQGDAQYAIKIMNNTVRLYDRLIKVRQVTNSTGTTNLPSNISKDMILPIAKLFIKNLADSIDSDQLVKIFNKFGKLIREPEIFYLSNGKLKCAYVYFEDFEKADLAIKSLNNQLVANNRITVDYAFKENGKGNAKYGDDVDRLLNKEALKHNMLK
The data set can be described thus: fluorescence anisotropy. Conditions: 20 mM K-Hepes pH 7.5, 125 mM KCl, 1 mM EDTA, 5 mM DTT, 0.01% Igepal, E. coli tRNA (100 ng FA, 500 ng EMSA), 22°C 20 min; EMSA gels at 4°C.

Another data set concerns the target T2, Hsh49p RRM2 (Saccharomyces cerevisiae, UniProt Q99181 108-185).
T2 sequence: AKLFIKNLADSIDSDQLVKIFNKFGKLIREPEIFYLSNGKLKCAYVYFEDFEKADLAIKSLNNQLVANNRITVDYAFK
The data set is described as follows: fluorescence anisotropy; 20 mM K-Hepes pH 7.5, 125 mM KCl, 1 mM EDTA, 5 mM DTT, 0.01% Igepal, E. coli tRNA (100 ng FA, 500 ng EMSA), 22°C 20 min; EMSA gels at 4°C. The conditions noted are these: protein: recombinant; tags: His-TEV tag (cleaved); label: 3' fluorescein; hairpin. (In general: Polarisation of emitted light reports the rotation of a fluorescent probe.)

The next data set deals with T3, Hsh49p (Saccharomyces cerevisiae, UniProt Q99181 1-213).
T3 sequence: T1 sequence
The data set can be described thus: EMSA; up to 1.5 µM protein, E. coli tRNA; 20 mM K-Hepes pH 7.5, 125 mM KCl, 1 mM EDTA, 5 mM DTT, 0.01% Igepal, E. coli tRNA (100 ng FA, 500 ng EMSA), 22°C 20 min; EMSA gels at 4°C. The conditions noted are these: protein: recombinant, tags: His-TEV tag (cleaved), label: 3' fluorescein.

The target of data set [2] is T4, Hsh49p;Cus1(290-368)p (Saccharomyces cerevisiae;Saccharomyces …, UniProt Q99181;Q02554 1-213;290-368, |).
T4 sequence 1: T1 sequence
T4 sequence 2: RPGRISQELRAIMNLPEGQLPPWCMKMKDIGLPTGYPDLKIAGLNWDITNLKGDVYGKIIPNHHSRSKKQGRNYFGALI
The description is as above. The conditions noted are these: protein: recombinant;recombinant, tags: His-TEV tag (cleaved);none stated, coexpressed, copies: 1;1, label: 3' fluorescein.

Another data set deals with T5, HisHsh49p (S. cerevisiae, UniProt Q99181 1-213).
T5 construct: Hsh49p, S. cerevisiae; Held on Ni-NTA resin by its His tag after the trypsin digest; also called His-tagged Hsh49p; source: E. coli, coexpressed with Cus1(121-392)p, purified as complex; not shown: His6, N-terminal, kept
T5 sequence (looked up): T1 sequence
The data set can be described thus: pull-down; purified HisHsh49p–Cus1 complex (40 µM) cut with trypsin (10 µg/mL, 10 min, 22°C), His-tagged Hsh49p held on Ni-NTA resin; fragments told by N-terminal sequencing and MALDI-TOF. The conditions noted are these: both partners purified.

The target of data set [3] is T6, Hsh49p Tyr152Ala-Tyr154Ala (RRM2 mutant);Cus1(290-350)p (Saccharomyces cerevisiae;Saccharomyces …, UniProt Q99181;Q02554 1-213;290-350, Y152A;Y154A|).
T6 sequence 1: T1 sequence with Y152A, Y154A
T6 sequence 2: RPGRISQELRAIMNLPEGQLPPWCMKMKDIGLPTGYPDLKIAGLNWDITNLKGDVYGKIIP
The data set can be described thus: fluorescence anisotropy; mutation has no effect; 20 mM K-Hepes pH 7.5, 125 mM KCl, 1 mM EDTA, 5 mM DTT, 0.01% Igepal, E. coli tRNA (100 ng FA, 500 ng EMSA), 22°C 20 min; EMSA gels at 4°C. The conditions noted are these: protein: recombinant;recombinant; tags: His-TEV tag (cleaved);none stated; coexpressed; copies: 1;1; label: 3' fluorescein; hairpin with 5' single strand.

Data set [4] has as its target T7, Hsh49p Tyr52Ala-Phe54Ala (RRM1 mutant);Cus1(290-350)p (Saccharomyces cerevisiae;Saccharomyces …, UniProt Q99181;Q02554 1-213;290-350, Y52A;F54A|).
T7 sequence 1: T1 sequence with Y52A, F54A
T7 sequence 2: T6 sequence 2
The data set is described as follows: fluorescence anisotropy; 20 mM K-Hepes pH 7.5, 125 mM KCl, 1 mM EDTA, 5 mM DTT, 0.01% Igepal, E. coli tRNA (100 ng FA, 500 ng EMSA), 22°C 20 min; EMSA gels at 4°C. Conditions: protein: recombinant;recombinant; tags: His-TEV tag (cleaved);none stated; coexpressed; copies: 1;1; label: 3' fluorescein; hairpin with 5' single strand.

Data set [5] deals with T4, Hsh49p;Cus1(290-368)p. The data set can be described thus: fluorescence anisotropy; similar to RRM1-Cus1(290-368)p; 20 mM K-Hepes pH 7.5, 125 mM KCl, 1 mM EDTA, 5 mM DTT, 0.01% Igepal, E. coli tRNA (100 ng FA, 500 ng EMSA), 22°C 20 min; EMSA gels at 4°C. The conditions noted are these: protein: recombinant;recombinant; tags: His-TEV tag (cleaved);none stated; coexpressed; copies: 1;1; label: 3' fluorescein; hairpin with 5' single strand.

Data set [6] concerns the target T4, Hsh49p;Cus1(290-368)p. The data set can be described thus: fluorescence anisotropy; 20 mM K-Hepes pH 7.5, 125 mM KCl, 1 mM EDTA, 5 mM DTT, 0.01% Igepal, E. coli tRNA (100 ng FA, 500 ng EMSA), 22°C 20 min; EMSA gels at 4°C. Conditions: protein: recombinant;recombinant; tags: His-TEV tag (cleaved);none stated; coexpressed; copies: 1;1; label: 3' fluorescein; hairpin with single-stranded flanks.

Data set [7] deals with T4, Hsh49p;Cus1(290-368)p. The data set can be described thus: fluorescence anisotropy; pseudouridines have no large effect; 20 mM K-Hepes pH 7.5, 125 mM KCl, 1 mM EDTA, 5 mM DTT, 0.01% Igepal, E. coli tRNA (100 ng FA, 500 ng EMSA), 22°C 20 min; EMSA gels at 4°C. The conditions noted are these: protein: recombinant;recombinant; tags: His-TEV tag (cleaved);none stated; coexpressed; copies: 1;1; label: 3' fluorescein; hairpin with single-stranded flanks.

Changes are numbered by the printed parent chain.

For the molecule “ACGAAUCUCUUUGCCUUUUGGCUUAGAUCAAGUGUAGUAUCUGUUCU [5'SLIBPRS]”, the binding signal (fold weaker than Hsh49p-Cus1(290-368)p) in data set [1] was 10.

B1: SLIIa (structured_RNA)
RNA: UUUCAGUGUAACAACUGAAA
As to B1, the binding result with Hsh49p RRM2, with Hsh49p (hairpin) and with Hsh49p;Cus1(290-368)p [2] (hairpin) was “no binding” each time.

B2: SLIIb (structured_RNA)
RNA: UGACCUCAAUGAGGCUCA
Take B2: the binding result with Hsh49p RRM2, with Hsh49p (hairpin) and in the data set with Hsh49p;Cus1(290-368)p [2] (hairpin) was “no binding” throughout.

B3: BPRS (ssRNA)
RNA: UCAAGUGUAGUAUCUGUUCU
Regarding B3, the binding result with Hsh49p and with Hsh49p;Cus1(290-368)p [2] was “no binding” in each case.

B4: SLI (structured_RNA)
RNA: UCUUUGCCUUUUGGCUUAGA
Take B4: the binding result with Hsh49p (hairpin) and with Hsh49p;Cus1(290-368)p [2] (hairpin) was “no binding” in each case.

B5: Cus1p fragment comprising residues 285-355 (domain or fragment, S. cerevisiae, UniProt Q02554 285-355, looked up)
chain: MVDHKRPGRISQELRAIMNLPEGQLPPWCMKMKDIGLPTGYPDLKIAGLNWDITNLKGDVYGKIIPNHHSR
notes: also called digested Cus1p fragment; source: trypsin digest of the purified HisHsh49p-Cus1 complex made in E. coli
Regarding B5, the binding result in the data set with HisHsh49p is given as “binds”.

B6: 5'SLI (structured_RNA)
RNA: ACGAAUCUCUUUGCCUUUUGGCUUAGA
B6: the binding result with Hsh49p (hairpin with 5' single strand) is given as “no binding”; in [3], “binds”; with Hsh49p;Cus1(290-368)p [5], “binds”. The binding signal in data set [4] was ~10 fold lower affinity than wild type.

B7: 5'SLIBPRS (structured_RNA)
RNA: ACGAAUCUCUUUGCCUUUUGGCUUAGAUCAAGUGUAGUAUCUGUUCU
Turning to B7, in the data set with Hsh49p;Cus1(290-368)p [6], the binding signal was ~10 fold stronger than Hsh49p alone.

B8: 5'SLIBPRS-pseu (structured_RNA)
RNA: B7 RNA
modifications: pseudouridines around the BPRS (positions in figure)
Consider B8, for which, in the data set with Hsh49p;Cus1(290-368)p [7], the binding result is given as “binds”.
